# Laboratory results: the DeepSol protein solubility set
# Assay: soluble on expression in E. coli; label from the status in PepcDB or PDB records
row,Sequence,soluble on expression in E. coli
1,MGSDKIHHHHHHADKFVAKCPNEIFIGAILEANSINQDTYKFLKISMNPINMGYTIPIKSQTITPSYNNMMKAIHEALKTNDVLKSNYSFSFVIKKIKSYQELAVNWGQNINLQQLLGITPDYKPQKNIILIDINQSFFSIIMDMPESLSTDPQVLQQLDKLAFINSIQFGRKVILVIESNIDYDKLQEAIDNLLKSKEVSQKELAILANSNIRLMTIGNKEIKDINPDNPFTSILTYLSSTVTPDDFGGPISFSASNIKDNSVFVNYFNVQ,not soluble
2,MGSDKIHHHHHHADPFASITHLVDSAMVNKTDSIDREKTSDEPKPIEADESFDDFIYNFASDDALQRQRVVFPLPYYNGERASKIDRKYWKHDDLFAKQSYYTLLFDREEDMDLVGDTSLTSVQVEWIFVKKRMVKKYYFERIKGAWMLEAINLRPIEENENEDFVEFFGHFATDSIFQSRRIRQPLVFVTTDPDDDFSILETTLDLNQWFAFKPALPADKLSNINYGQQNDDNASHKILALKGIGNGFSNILYFQRKDSGWELYKFEDTSI,not soluble
3,MGSDKIHHHHHHAEISDKVIRIGVLNDQSGVYADIAGTGSVEAARMAAEEFGGEIDGAKIEFVSADHQNKADIAANVANQWIDTGGVDAIVDIPNSSAMLAVQEIGRTKKRIVIASGGGSTDFTGPKCSPYGFHWTYDTYSLAKGTAESLVKDGGTTWYNIVVDYAFGHSLDTDTSRFITQAGGQVVGRVLHPLGTSDFSSYLLQAQGSGAKVIGVLSAGADTVNAIKQAAEFGITQGGQILAGLLIFDQTVHSLGLETAQGLRLTTGFYWDRTDATRAWSAEFLKRSTKNIPSMAHAGVYSGVRHYLAAIKAAGTDNADAVAAKMRETPVNDMFAENGTVRADGRMVHDMYLMEVKKPADSTSEWDLMRLVHVIPGEEAYRPLAEGGCPLVQ,not soluble
4,MGSDKIHHHHHHAGLDAVEIGTGGNPGNHHCPTDELLASEAARKEYLEKFTSRGLTISAFSCHDNPISPNKEEAAASDEILRKSIKLASLMNVPVVNTFSGTAGDSDDAKAPNWPVIPWPTVYSDIKTWQWETKLIPYWKEIGELAAASGVKIGIELHGGFLCHTPYTILKLREETNDAIGVNLDPSHLWWQGIDPVGAIKILGKAGAIHHFHAKDTYLDQDNINMYGLTDMQPYGDVQTRSWTFRSVGCGHSLTEWSDIMSALRTYGYDYVVSIEHEDPLMSIDEGFDRAVTNLQSILIKDKPLDMWWA,not soluble
5,MGSDKIHHHHHHAGVVVPKYTPSTENPGGPGEEPGDGLIDPAEPLDRGFMHLKGRELKSLNSISITGLNDGEKVILSTLAGLAARVTGDQVYINEGGPSSVWLKQMQNKYGIPVNTYNALAPLVQHYVETGVIKGYIVYTPYSEGQSHSINVATSLCGLLRGIAVPESLVDKVKAMGVTTELMDVRSYDEKWLYENYKDQLDKSLAADMKPEIFHHLRDYITMTNAFAFYDYNARRDWSWRTSILKDLDKGAYCFGYYDLDEWGMVNNASQLGVSMLPTDQAANLATLSSIYDTTGLKQRPATKEVVTEENVHYVTFLVSDGDNIAFNLWGQQGYMDHDLHGQFPLGYTISPSLYDLAPAALRWYYENSKEGDYFVAGPSGSSYIFPSKMSDADLDDYLAKLNEYVDKSGLNICNILDQKIMDNPKVYNKYLAQPNIDAIFYTGYGEKGDGRIKFSDNGKPVIEQRSVLWEGIDGGSNRGEESTVISQINSRSANPHSADGYTFVFVHCWTKNQQSIKTVIDGLNDNVRVVPVDQFVQLVKQNLGPK,not soluble
6,MGSDKIHHHHHHAPQPTVAVARGKDYARTTRSALALLGGMKRFVKPGDVVVLKPNMGWDRTPAQAANTHPLVVRALAEEALAAGAKRVKVFDRTCNDERRCYVQSGISDALKGMKGVELKFIENERFRRVPIKGAVLPAWELYDEALSADVFINVPVAKHHGLSRLTLGLKNVMGVMGGNRGSIHRHLDDALADINSVLKSHLTVIDATRILTDHGPQGGSPADVKVMDTVIASTDIVAADAYATTLFGLKPEDIPVTVAAHKRGLGEMNLKRVRIVTA,not soluble
7,MGSDKIHHHHHHCSEELDSQPMESYPEGGEPLDVVCKEYGISDYEDIELLSYYKNNLEQANFSGLREEKLWLASFNVKDKSPIINWTDELPFNRNRKIYKGYGEYEDVTIQQITMLQTMYFNPKEFVASLSYYFGKDYGYLALLFRHDTQTKEVQVKRSEILAGFQYSIINNDCCYSLSGDTLYIAEKGFGYSNVGTLYTSEFISHEEAIYTHRDNKGFFVGRRNFKLGEDLWHIQVPQLNDEPADAKIEVSVEDNSKRVWKYNVNIIHYDGTKKNVTFEVDIDNGTIKGENDYTSLIIGKWKKTSGDAVATHVTYKNDGTFEYTSTEDSSYKEVGKYKIDGNKLYEMYSDEEEWIINDILLLNSMTLSVQELEADGVTPTGQKYSYQRVE,not soluble
8,MGSDKIHHHHHHCVRVPTLMIVPEAAQSGVAETVFVASNRVFANGQFQSARQDDVTYTRFTVQIPQDRDAGAVRPGRARRTGPNLRTDFVASDGVHLGGEGRFQSELLAEARRRGTSEVMVFIHGFASSIGTGIYRTAQIRYDFEVPGVAVHYAWPSSGSYIGYAYDRDSALFARDGLEELITGIMQTDLDVVLVAHSLGSSVVMEVLRQLRIAGRNALIDRIHGVILFSPDLDVDVFRSQASRIGDLPQPFVIFTSQRDQALTFSSIMAGRTARVGNLATADQVAEFDVTLIDVSAFEGGVRDRLNHFAGATSQSAVQILRDAAQINSAFEDGPDARPGLLPGTILTIQNATLVLLDPEHAR,not soluble
9,MGSDKIHHHHHHDDDNTANPAEEVVKASKKHDTAILLCTFGSTFKESIKTYDATLADFQNAFPDADIYLSFTSRTCVNRVEAETGIARYQPDLWLQALGNAGYKKVAVQSLHIIPGEEYLSLMNTDVKKKFMIESFPSVQVVKSPCLVYNEEDVEAVAKVLYSHYSDKLADNKNILLLMGHGNPDKNYNANTKYTETEEAMQALAANKNVFVGTVDYGDMLFWPEEGEPNEECVYSKLTKYCEDHNLKPEEITISLAPFMSIAGDHAHNDLWGIEEGDDFSAAAPNADACWRLKLLKMGFKIDTKESHNGSLENCKIIGLGDYDAVRQIWVNHLKALYNDAEAWETGEDYQ,not soluble
10,MGSDKIHHHHHHDETDPILTQKNWDGTATYFQSSDEHGFSMYYKPQVGFVGDPMPFYDPVAKDFKVMYLQDYRPNPEATYHPIFGVATKDGATYESLGELISCGGRDEQDAAIGTGGTIYNPADKLYYTFYTGNKFKPSSDQNAQVVMVATSPDFKTWTKNRTFYLKGDTYGYDKNDFRDPFLFQTEDGVYHMLIATRKNGKGHIAEFTSADLKEWESAGTFMTMMWDRFYECPDVFKMGDWWYLIYSEQASFMRKVQYFKGRTLEDLKATTANDAGIWPDNREGMLDSRAFYAGKTASDGTNRYIWGWCPTRAGNDNGNVGDVEPEWAGNLVAQRLIQHEDGTLTLGVPDAIDRKYTSAQEVKVMAKDGNMIESGKTYTLGEGASVIFNRLKVHNKISFTVKTASNTDRFGISFVRGTDSASWYSIHVNADEGKANFEKDGDDAKYLFDNKFNIPADNEYRVTIYSDQSVCVTYINDQLSFTNRIYQMQKNPWSLCCYKGEITVSDVQVSTY,not soluble
11,MGSDKIHHHHHHDKMNKNTGALQFDSIQVNETAHLFNDTAKPACNIIINFAYPVKSSDDMLKDSLNAYFISVCFGDKYIGEKPEAVVKQYAKNYIDEYRHDQEPMYAEDEKNKESDAVVGAWYSYYKSIESHVQLYEKDLLVYRVDYNEYTGGAHGMYMSTFLNMDLTLMRPLRLDDIFVGDFQEALTDLIWNQLMADNKVTTHEALEDMGYASTGDIAPTENFYLSKEGITFYYNIYDITPYSMGPVKVTIPYSMMEHLLGSNPILGDLKD,not soluble
12,MGSDKIHHHHHHDLDENVYDKLPTDEFGTTEKQINAIMAPAYQSLKNMLAYDGPWGAADMTADILIAPTRVGGDWWDGGQYMEQCMHSWKPNSYSVENCWTYCTEGLTTVNSVYNIIEKSEAMSDELKLQYLSELRGLRAFWYYVIVDIFGNAPLVTDFEDTSLPSITSRADLYKYVVKELTEIIPNLRSDVSDASYGKFTQGAARMVLAKMYLNAEEWIGEPNWKGVVEQCDEIMKLEYIIEPNWKTNFEVHNEVSREIIFPICYKASDAWGNSIHLWTLHYLDPDVLGFTGGMWNGINAQPDFVRTFDTEDPRYEGSFLIGPMIDPSTGEILKTTLGHDLIHTIDLNVVPGTEKTDADGNLTPWGEVHQEDGARINKWVYEKGMQNTNMENDIAIFRLADVYLMKAEALVRMGGDLGEATRLVNAIRERAYGNSDHNYTSVTLDDIYNERGYELAFEFVRRQDMIRFGTYLKPRYMKPKQTPEYRKIFPIPFKAWQKNNNLVQNPGYPAF,not soluble
13,MGSDKIHHHHHHDNAGRVVEITSAPERVVSLSPAATRFLVFLGLEDKIVGVTDYDSYEAEKVGAMVPVNIEKVVSLNPDLVLMFGGFQLPEVPKLEKAGLKVLVVNPNSLNDIIRDVVLLGTIFDRRDLALEKSEKLREKMLEIGKKTYNVPPSKRPKVLYLISSPGPDVKEIWTCGMGSYLNEIISLAGGVNIASGIAGPNGWPQLSIEYVVSQNPDVIIVGVYIPGTENEEIKKILNFEPFKEINAVKNKRVFAVDGNVASQPSPDVFELLDLFYEFFYGGKGE,not soluble
14,MGSDKIHHHHHHDYEAVNTNPYGVSDGELGPLKYGARFMNMQQRVIPIGSPSLTTGPGNDLQNTDLISSGNYIGYFGNNNNWGFNNEANWNFTDSRMNYAYQNFYSQIFLPWNEIYEIAKDSDSPSEQAILEIANIVRNIAWLRATDVFGPIAYNSAGDGSIAPKFDSQEVVYRSMLADLSKSVELLNTISYSVMAQYDLIYNGNVQNWVKLANSLMLRIAVRVHFIDETLAKEYITKALDPKNGGVIEDISSEAKIKSSDKMPLLNSMLASVNEYNETRMGATIWGYLDGYKDPRLSAYFTEGTYGSGSWAQTGYFPVAPTNSKSKSETSYSAKFASRPKVDSNSPLYWFRASETYFLKAEAALYNLIGGDPKTFYEQGINISFQEQGVSGVATYLSGTGKPTGLTGSNYKYGTYNHDLSIGNTSPKWDDYTGNLSKQEEQLQKIITQKYLALYPNAVEAWTEYRRTGFPYLMKPMDEAAPGRIGASIEDCRVPERFRFAPTAYNSNPNMAEIPTLLGGGDIGATKLWWVRSNRPKQPNQ,not soluble
15,MGSDKIHHHHHHELGMQDNLNDSKILLSSDEYISIAYDNPGIITSEEAKQLVLDFNPTGLQTRNNNVKIMAISTYNVSSSSGLKTRVGSTNLTTIPVYKIEFLSDEGKGVAYVPADERFAKIMAYLPKTDLKDSVKYVDSKSMLYLSELSLLEDAKYYEKVKSELRAKTLAKIAKTLNVKAVRYDEIQDIIIVKDEILSRSEPTFPIGNPIGFAGLYCSSTEWNQDAPYNDLLQKENCDLYDTGSPTYEAVPAGCAVISIAQIMASLEPDLTVDGLKIDWNILKAQKQIIAPSSWQTPSSETTREMVAKLIKYIYIATNTQPVRNSSGYVTGSGTYSSDTSSFFYRFFSTSGLKNGWDGNAAFQSLQLAKLVWIAATSNRGGSHAFILDGFAYWRPQTRYLVKNFDFYFHANMGWGGYYDGFYLVNKDLSITFDTSNGSYDRNFSMIYNIINK,not soluble
16,MGSDKIHHHHHHENLYFQGMKTIVIEDKQRIESIILQADACFVGITDLEGNPYVVPMNFGYENDTLYLHSGPEGGKIEMLQRNNNVCITFSLGHKLVYQHKQVACSYSMRSESAMCRGKVEFIEDMEEKRHALDIIMRHYTKDQFSYSDPAVRNVKVWKVPVDQMTGKVFGLRADEKP,soluble
